Substitutions are numbered along the chain they refer to.

The labels stand for the following.
T1: extracellular domain (ECD) PD-1 protein from mouse (mouse, UniProt Q02242 25-169)
T1 construct: extracellular domain; also called mouse PD-1 antigen
T1 sequence (looked up): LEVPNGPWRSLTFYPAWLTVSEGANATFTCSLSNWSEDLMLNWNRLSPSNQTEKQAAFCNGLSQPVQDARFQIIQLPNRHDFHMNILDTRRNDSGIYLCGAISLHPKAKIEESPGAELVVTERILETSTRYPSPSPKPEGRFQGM

B1: humanized antibody 1G1-h70 (antibody, V domains shown)
VH: QVQLVQSGAEVKKPGASVKVSCKASGYTFTGYWMHWVRQAPGQGLEWIGMIHPNSDTTTYNEKFKNRVTMTRDTSISTAYMELSRLRSDDTAVYYCAGTDQAAWFAFWGQGTTVTVSS
VL: DIVMTQTPLSLSVTPGQPASISCRSSQNIVHSQGDTYLEWYLQKPGQSPQLLIYKVSKRFSGVPDRFSGSGSGTDFTLKISRVEAEDVGVYYCFQGSHVPWTFGGGTKVEIKR
notes: hIgG4 heavy chain, human kappa light chain; also called 1G1-h70 parent antibody (WT); U299-WTI
B2: 2E5 antibody (antibody, V domains shown)
VH: QVQLVQSGAEVKKPGSSVKVSCKASGFTFTTYYISWVRQAPGQGLEYLGYINMGSGGTNYNEKFKGRVTITADKSTSTAYMELSSLRSEDTAVYYCAIIGYFDYWGQGTMVTVSS
VL: DVVMTQSPLSLPVTLGQPASISCRSSQSLLDSDGGTYLYWFQQRPGQSPRRLIYLVSTLGSGVPDRFSGSGSGTDFTLKISRVEAEDVGVYYCMQLTHWPYTFGQGTKLEIK
B3: AHF16556 (antibody, V domains shown)
VH: B1 VH with T59V, E62W, A102E, F105A
VL: DIVMTQTPLSLSVTPGQPASISCRSSQNIVRSQGDTYLEWYLQKPGQSPQLLIYKVSKRFSGVPDRFSGSGSGTDFTLKISRVEAEDVGVYYCFQGSHVPWTFGGGTKVEIK
B4: AHF16566 (antibody, V domains shown)
VH: B1 VH with T59V, E62W, F105A
VL: B3 VL with R31H
B5: AHF16563 (antibody, V domains shown)
VH: B1 VH with T59V, E62W, A102E, F105M, A106G
VL: B3 VL with R31H
B6: AHF16559 (antibody, V domains shown)
VH: B1 VH with T59V, F105H
VL: B3 VL with R31H
B7: AHF16565 (antibody, V domains shown)
VH: B1 VH with T59V, E62W, A102E, F105H, A106G
VL: B3 VL
B8: AHF16568 (antibody, V domains shown)
VH: B1 VH with T59I, E62W, A102E, F105M, A106G
VL: B3 VL
B9: AHF16569 (antibody, V domains shown)
VH: B1 VH with T59I, E62W, A102E, F105A
VL: B3 VL
B10: AHF16558 (antibody, V domains shown)
VH: B1 VH with A102E, F105H
VL: B3 VL
B11: AHF16560 (antibody, V domains shown)
VH: B1 VH with T59I, A102E, F105H, A106G
VL: B3 VL
B12: AHF16564 (antibody, V domains shown)
VH: B1 VH with A102E, F105A, A106G
VL: B3 VL
B13: AHF16570 (antibody, V domains shown)
VH: B1 VH with T59I, E62W, F105A, A106G
VL: B3 VL
B14: AHF16557 (antibody, V domains shown)
VH: B1 VH with T59V, E62W, F105A, A106G
VL: B3 VL with R31H
B15: AHF16561 (antibody, V domains shown)
VH: B1 VH with T59I, F105A, A106G
VL: B3 VL
B16: humanized antibody 1G1-h68 (antibody, human IgG4, kappa, V domains shown)
VH: B1 VH with A97T
VL: B1 VL with Q33N
notes: hIgG4 heavy chain, human kappa light chain
B17: humanized antibody 1G1-h61 (antibody, human IgG4, kappa, V domains shown)
VH: B1 VH with I48M
VL: B1 VL with Q33N, Q50K
notes: as for B16

In the first assay the target is T2, human PD-1 protein (human, UniProt Q15116 25-167, limits assumed).
T2 construct: also called human PD-1 antigen
T2 sequence (Q15116 25-167 limits assumed): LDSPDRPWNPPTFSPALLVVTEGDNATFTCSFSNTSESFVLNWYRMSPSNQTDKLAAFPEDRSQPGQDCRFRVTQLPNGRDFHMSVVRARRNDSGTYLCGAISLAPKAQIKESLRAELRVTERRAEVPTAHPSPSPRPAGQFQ
The assay is described as follows: SPR, Biacore 8K, antibody captured on Protein A chip, human PD-1 as analyte, pH 7.4. For orientation: In SPR one partner is held on a chip, and binding of the other changes the refractive index at the surface.
Turning to B1, the dissociation constant (Kd) (usually the constant that tells how readily two partners part at equilibrium) amounted to 5.4 nM.
On the same count and under the same terms, in the case of B2 it was 12.6 nM.

The next assay concerns the target T2, human PD-1 protein. Description: SPR, binding kinetics to human PD-1.
B3: the dissociation constant (Kd) was found to be 0.427 nM; the koff (as a rule, the first-order rate constant of dissociation) came to 6.31e-05 s⁻¹; the kon (usually the rate constant with which the complex forms) turned out to be 148000 M⁻¹ s⁻¹.
In the same order, the values of B4 are 0.349 nM, 7.53e-05 s⁻¹ and 215000 M⁻¹ s⁻¹.
On the same counts, the results for B5 are 0.165 nM, 3.6e-05 s⁻¹ and 218000 M⁻¹ s⁻¹.
Molecule B6 came in with an equilibrium dissociation constant (Kd) of 0.371 nM, a koff of 7.62e-05 s⁻¹ and a kon of 206000 M⁻¹ s⁻¹.
B7: binding was put at a Kd of 0.913 nM, the dissociation rate constant (koff) was determined as 0.000118 s⁻¹ and the kon is 130000 M⁻¹ s⁻¹.
In the same order, the values of B8 are 0.241 nM, 3.52e-05 s⁻¹ and 146000 M⁻¹ s⁻¹.
In the same order, the values of B9 are 0.339 nM, 6.74e-05 s⁻¹ and 199000 M⁻¹ s⁻¹.
In the same order, the values of B10 are 0.31 nM, 7.69e-05 s⁻¹ and 248000 M⁻¹ s⁻¹.
Turning to B11, binding was characterised by a dissociation constant (Kd) of 0.331 nM, the off-rate (koff) was 6.74e-05 s⁻¹ and the kon was found to be 204000 M⁻¹ s⁻¹.
In the same order, the values of B12 are 0.16 nM, 3.68e-05 s⁻¹ and 230000 M⁻¹ s⁻¹.
In the same order, the values of B13 are 0.2 nM, 3.29e-05 s⁻¹ and 164000 M⁻¹ s⁻¹.
In the same order, the values of B14 are 0.425 nM, 8.68e-05 s⁻¹ and 204000 M⁻¹ s⁻¹.
B15: binding was characterised by a dissociation constant (Kd) of 0.302 nM, the koff was 5.53e-05 s⁻¹ and the kon was determined as 183000 M⁻¹ s⁻¹.

The target in a further assay is T2, human PD-1 protein. The assay is described as follows: SPR, Biacore 8K, antibody captured on Protein A chip, human PD-1 as analyte, HBS-EP+ at pH 6.0. Here is the method: (§1) The binding kinetics of each antibody to human PD-1 were measured through SPR (Surface Plasma Resonance) analysis using Biacore 8K (Cytiva), and the antibodies' binding affinities to the antigen were compared to one another.
(§2) Seven concentrations ([…]) of human PD-1 were flowed onto the sensor chip at a flow rate of 30 μL/min for an association phase of 120 s, followed by dissociation for 1800 s. Capture, association, and dissociation were performed in HBS-EP+buffer at pH 6.0. The chip was regenerated with glycine at pH 1.5 after each experiment. Association and dissociation curves were drawn using Cytiva evaluation software, and kinetics and affinity values were determined.
B1 had a dissociation constant (Kd) of 0.9 nM.
For the molecule B2, the Kd was 4.5 nM.

For the next assay, the target named is T1, extracellular domain (ECD) PD-1 protein …. The assay is described as follows: protein-based ELISA, coated PD-1 ECD, antibody at 1 ug/ml. How it is done:
(§3) To determine the cross-reactivity of the antibody to PD-1 antigens, protein-based ELISA was performed. To summarize the ELISA analysis, a 96-well plate (Thermo scientific) was coated with 10 ng of the extracellular domain (ECD) PD-1 proteins from human, mouse, rabbit, cynomolgus, and rat overnight at 4° C. […] After washing, a secondary antibody (anti-human IgG antibody) was added and incubated at 37° C. for 2 hours. After washing, TMB substrate (abcam) was added, and the color reaction was stopped with STOP solution (abcam). Absorbance at 450/650 nm was measured using a microplate reader (ThermoFisher).
(In an ELISA, binding on a coated surface is turned into a signal by an enzyme label.)
On to B16, for which the binding result is “binds”.
Still for that read-out and setting: in the case of B1 it was “binds”.
The same measure, in the same setting: in the case of B17 it was “binds”.

For a further assay, the target named is T3, extracellular domain (ECD) PD-1 protein from human (human, UniProt Q15116 25-170).
T3 construct: the whole entry is named; also called human PD-1 antigen
T3 sequence (Q15116 25-170 limits assumed): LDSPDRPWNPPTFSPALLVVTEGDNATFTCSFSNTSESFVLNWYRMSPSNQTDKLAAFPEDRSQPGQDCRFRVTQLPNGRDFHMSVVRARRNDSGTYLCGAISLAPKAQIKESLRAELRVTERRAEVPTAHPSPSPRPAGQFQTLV
The description is as above. How it is done: as §3
As to B16, the binding result is reported as “binds”.
On the same count and under the same terms, as for B17, the entry is “binds”.

Another assay addresses T2, human PD-1 protein. Description: SPR; ratio against the U299-WT parent.
On to B3, for which the “Ratio (kD)” value stood at 5.27 and the “Ratio (kd)” value is 6.45.
For B4, the “Ratio (kD)” value worked out at 6.45 and the “Ratio (kd)” value turned out to be 5.41.
On the same counts, the results for B5 are 13.6 and 11.3.
On the same counts, the results for B6 are 6.06 and 5.34.
In the same order, the values of B7 are 2.46 and 3.45.
In the case of B8, the “Ratio (kD)” value was found to be 9.34 and the “Ratio (kd)” value is 11.6.
In the same order, the values of B9 are 6.64 and 6.04.
In the same order, the values of B10 are 7.26 and 5.29.
On the same counts, the results for B11 are 6.8 and 6.04.
With B12, the “Ratio (kD)” value came out at 14.1 and the “Ratio (kd)” value came to 11.1.
In the same order, the values of B13 are 11.2 and 12.4.
On the same counts, the results for B14 are 5.29 and 4.69.
In the same order, the values of B15 are 7.45 and 7.36.

The target of a further assay is T2, human PD-1 protein. Description: SPR, binding kinetics to human PD-1; parent run 1.
Regarding B1, the Kd was determined as 2.32 nM, the koff was determined as 0.000402 s⁻¹ and the association rate constant (kon) is 174000 M⁻¹ s⁻¹.

For the next assay, the target named is T2, human PD-1 protein. Description: SPR (Biacore 8K), ratio between the values at pH 7.4 and pH 6.0, human PD-1 as analyte. Here is the method: as §1, §2
Consider B1, for which the “Ratio(PH 7.4 vs PH6) KD” value is 5.8, the “Ratio(PH 7.4 vs PH6) ka” value amounted to 2.3 and the “Ratio(PH 7.4 vs PH6) kd” value turned out to be 2.7.
On the same counts, the results for B2 are 2.8, 3.4 and 0.8.

For a further assay, the target named is T2, human PD-1 protein. The assay is described as follows: SPR, binding kinetics to human PD-1; parent run 2.
Regarding B1, the Kd is 2.17 nM, the koff is 0.000412 s⁻¹ and the kon turned out to be 190000 M⁻¹ s⁻¹.
